Measurements published in patent US20200164085A1 (Merck Sharp & Dohme, published 2020).

T1: human CD74 (human, UniProt P04233 1-296)
T1 sequence (looked up): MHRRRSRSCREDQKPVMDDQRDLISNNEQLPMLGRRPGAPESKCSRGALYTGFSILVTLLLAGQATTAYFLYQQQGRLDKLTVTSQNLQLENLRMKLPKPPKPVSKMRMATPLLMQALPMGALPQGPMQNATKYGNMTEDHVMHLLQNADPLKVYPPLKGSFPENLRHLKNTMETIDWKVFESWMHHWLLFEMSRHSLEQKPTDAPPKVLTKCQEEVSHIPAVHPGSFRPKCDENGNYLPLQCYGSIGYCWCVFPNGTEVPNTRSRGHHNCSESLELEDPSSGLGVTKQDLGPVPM

B1: ADC 12-5 (anti-hCD74 (LL1) conjugated to Linker 2-7) (antibody, human IgG1, kappa, V domains shown)
VH: QVQLQQSGSELKKPGASVKVSCKASGYTFTNYGVNWIKQAPGQGLQWMGWINPNTGEPTFDDDFKGRFAFSLDTSVSTAYLQISSLKADDTAVYFCSRSRGKNEAWFAYWGQGSLVTVSS
VL: DIQLTQSPLSLPVTLGQPASISCRSSQSLVHRNGNTYLHWFQQRPGQSPRLLIYTVSNRFSGVPDRFSGSGSGTDFTLKISRVEAEDVGVYFCSQSSHVPPTFGAGTRLEIKR
modifications: position 121 is para-azido phenylalanine (pAzF), conjugated to dexamethasone drug-linker 2-7
B2: ADC 12-10 (anti-hCD74 (LL1) conjugated to Linker 9-4) (antibody, human IgG1, kappa, V domains shown)
VH: B1 VH
VL: B1 VL
modifications: position 121 is para-azido phenylalanine (pAzF), conjugated to budesonide drug-linker 9-4
B3: ADC 12-9 (anti-hCD74 (LL1) conjugated to Linker 6-2) (antibody, human IgG1, kappa, V domains shown)
VH: B1 VH
VL: B1 VL
modifications: position 121 is para-azido phenylalanine (pAzF), conjugated to dexamethasone drug-linker 6-2
B4: ADC 12-7 (anti-hCD74 (LL1) conjugated to Linker 4-3) (antibody, human IgG1, kappa, V domains shown)
VH: B1 VH
VL: B1 VL
modifications: position 121 is para-azido phenylalanine (pAzF), conjugated to dexamethasone drug-linker 4-3
B5: ADC 12-6 (anti-hCD74 (LL1) conjugated to Linker 3-4) (antibody, human IgG1, kappa, V domains shown)
VH: B1 VH
VL: B1 VL
modifications: position 121 is para-azido phenylalanine (pAzF), conjugated to dexamethasone drug-linker 3-4
B6: ADC 12-4 (anti-hCD74 (LL1) conjugated to Linker 1-4) (antibody, human IgG1, kappa, V domains shown)
VH: B1 VH
VL: B1 VL
modifications: position 121 is para-azido phenylalanine (pAzF), conjugated to dexamethasone drug-linker 1-4

target: T1, human CD74; assay: cell-based or functional assay

Row | EC50, GILZ mRNA, HUT-78 cells [µg/mL] | EC50, GILZ mRNA, SUDHL-6 cells [µg/mL] | Emax, GILZ mRNA, HUT-78 cells | Emax, GILZ mRNA, SUDHL-6 cells | Binder
1 | 1.32 | 0.4 | 4.13 | 3.4 | B1
2 | 0.2 | 0.21 | 6.47 | 5.89 | B2
3 | > 30 | > 30 | 2.55 | 6.48 | B3
4 | > 30 | 14.3 | 1.93 | 1.52 | B4
5 | 1.87 | 0.47 | 4.61 | 3.33 | B5
6 | 1.08 | 0.99 | 3.95 | 3.44 | B6
